The source of these data is patent US11078245B2, “Colon and pancreas cancer peptidomimetics” (PRECISION BIOLOGICS, INC., priority 2010, dated 2021).

For data set [1], the system named is colorectal and pancreatic cancer biopsies. Briefly: IHC staining of patient tumor biopsies with NEO-101. In kind it is binding, human. The following applies: colorectal and pancreatic biopsies together. The protocol: Patients enrolled on the clinical diagnostic study agreed to provide their tumor biopsy or surgical specimen to be stained immunohistochemically with NEO-101. Tumor sections were prepared as slides, and two additional slides were prepared for negative control (human IgG1) and positive control (cytokeratin) staining to ensure quality controls for the IHC method. More specifically, tumor biopsy specimens from colorectal and pancreas cancer patients were deparaffinized at about 60° C. for 30 min prior to staining with NEO-101. Subsequently, all staining steps were carried out at about 25° C. Slides (4 μm) were blocked with Peroxo-Bloc® inhibitor (Zymed Laboratories) for about 2 min, rinsed with phosphate-buffered saline (PBS), and blocked with CAS (Zymed) for an additional about 10 minutes. Slides were stained with about 10 μg/mL of biotin-labeled NEO-101 for 1 hour, and washed three times with PBS containing 0.05% Tween®-20 non-ionic detergent. […]
All antibodies were biotinylated prior to use and tested independently at various concentrations using human tumor tissues known to react with the antibodies. Primary antibody (NEO-101) was used at about 10 μg/mL, detected with streptavidin-horseradish peroxidase conjugate, and mounted on slides. A positive staining scale ranging from +1 to +5 was applied to the staining results, measured by light microscopy. […]

The nature of data set [2]: Cytokine response in vivo, multiplex bead assay. Also on record: species or system BALB/c mice. Particulars: 3.5 or 14 mg/kg iv; day 3. The protocol: In a preliminary study designed to evaluate potential cytokine responses in vivo, normal BALB/c mice were injected intravenously with either 3.5 mg/kg or 14 mg/kg (5 mice per group) of research-grade NEO-101. Blood was collected on Study Day 3 (^72 hours post-injection) and Study Day 10. Serum was prepared (including from the pre-bleed of each mouse) and tested for the presence of mouse IL-2, IFN-γ, IL-4, and IL-5 in a multiplex bead assay using the SearchLight Array service offered by Aushon BioSystems, Inc.

The nature of data set [3]: Preliminary non-GLP toxicity study. In kind it is in vivo, BALB/c mice. The protocol: A preliminary non-GLP toxicity study using a research-grade preparation of NEO-101 was also conducted. Normal BALB/c mice were Injected with a single IV dose of saline, or 3, 10, 30, or 100 mg/kg of NEO-101 (n=3 female mice per group). In-life parameters measured included body weights and clinical observations. Mice were humanely sacrificed 72 hours following the injection and specimens were collected for analysis. Post-mortem parameters included macroscopic examination, blood cell counts, serum chemistries, and histopathological evaluation of selected major organs and tissues. […] No other toxicities were detected in these studies potentially associated with NEO-101, including during histopathological examination of the major organ systems in these mice.

A short description of the next data set: Pharmacokinetics. Particulars: for serum half-life (t½): single dose 100 mg/kg. In kind it is in vivo, mice. The protocol:
To determine whether gender impacted the disposition of NEO-101 in vivo, each treatment group contained four males and four females. Clearance, Cmax and half-life following a single dose of 10 or 100 mg/kg were compared by non-parametric Mann-Whitney test. […] However, the serum half-life of NEO-101 was shorter in females than in males. […] However, it is likely that this is a spurious observation, arising from high inter-animal variability, as this difference in half-life was not replicated following multiple doses, regardless of dose level.
The data provides useful guidance for the dosing schedule of possible therapeutic regimes. Mice injected intravenously with 10 mg/kg of NEO-101 may be used for comparison to the doses used in therapy regiments for humans, for instance.

The subject of data set [4] is colorectal cancer cell line LS174T. Briefly: Immunofluorescence with FITC labeled NEO-101. In kind it is cell-based. Particulars: 2 μg/ml FITC labeled antibody. The protocol:
(§1) FACs data showing NEO-101 antibody binding to colon cancer and pancreatic cancer cell lines. Cells were washed and suspended in either 2 μg/ml NEO-101-FITC or isotype control antibody-FITC for 1 hour, washed and then subjected to FACS analysis. Experiments with all cell lines were repeated at least three times. […] DAPI was used to stain the nucleus. […] The staining pattern of these pancreatic and colorectal tumor cells was predominantly membrane-associated, consistent with the expression profile of MUC5AC.

For data set [5], the system named is pancreatic cancer cell line AsPC-1. Kind of data set: Immunofluorescence with FITC labeled NEO-101. The data set is classed as cell-based. The following applies: 2 μg/ml FITC labeled antibody. The protocol: as §1
A further data set deals with CFPAC1 cells. Kind of data set: NEO-101-coupled Dynal beads rosette assay. In kind it is cell-based, human. The following applies: antibody-coupled Dynal beads with TBS, no M13 clone. The procedure:
The M13 clones identified by the biopanning were also immunoassayed using magnetic beads. Aliquots of 5 μl M13 phage (10^11/10 μl) were mixed with 10 μl NEO-101-coupled Dynal® beads at RT for 20 min on a rotator. CFPAC1 cells (30 μl of 10^6 cells/ml) were added and incubated at 4° C. for 30 min. Rosetted cells were counted (>8 beads/cell).

For data set [6] the following is noted: normal BALB/c mice.
Description: Mouse anti-NEO-101 antibody (MAHA) responses were also measured in this study (CB08-5110). The analysis employed an ELISA based assay to detect NEO-101-specific antibodies in mouse serum.

Where “and” joins values, the source holds several entries; their conditions need not be identical. Identical values can stand only once.

B1: NEO-101: Chimeric NEO-101 antibody, engineered in CHO-DG44 production cell clone 4B7; targets a variant of MUC5AC (protein)
light: QVVLTQSPVIMSASPGEKVTMTCSASSSISYMYWYQQKPGTSPKRWIYDTSKLASGVPARFSGSGSGTSYSLTISNMEAGDAATYYCHQRDSYPWTFGGGTNLEIK
heavy: QVQLKESGPDLVAPSQSLSITCTVSGFSLSKFGVNWVRQPPGKGLEWLGVIWGDGSTSYNSGLISRLSISKENSKSQVFLKLNSLQADDTATYYCVKPGGDYWGHGTSVTVSS
For B1, in data set [1], the “patient tumor samples considered positive (+1 to +5)” value is reported as 79%; the “patient tumor samples considered positive, samples/total” value is 30 of 38 and 30/38. In data set [2], the “serum level of IFN-γ” value is listed as “no appreciable change”, the “serum level of IL-2” value is reported as “small increase”, the “serum level of IL-4” value is on record as “no appreciable change” and the “serum level of IL-5” value is on record as “small increase”. For the same molecule, in data set [3] (2 out of 3 mice that received 100 mg/kg), the “serum aspartate transaminase (AST)” value is on record as “mild, but statistically insignificant elevation”. Further, the “body weight, blood cell counts, and histopathology of 7 major organs and tissues” value in data set [3] (single IV dose 3, 10, 30 or 100 mg/kg, 72 hours) is recorded as “no significant changes”. Also, the “serum half-life (t½)” value in “Pharmacokinetics” (females) is 109.5 ± 14.72 h. Moreover, the “serum half-life (t½)” value in “Pharmacokinetics” (males) is 285.4 ± 139.5 h. Besides, in the data set “Pharmacokinetics” (mice), the clearance result was “low clearance” and the volume of distribution result is recorded as “limited volume of distribution”. Moreover, the “gender-specific differences in clearance or Cmax” value in “Pharmacokinetics” (single dose of 10 or 100 mg/kg) is “No significant gender-specific differences were observed”. Also, the binding by immunofluorescence entry in data set [4] is listed as “binds”. For the same molecule, the binding by immunofluorescence entry in data set [5] is “binds”. Besides, in the data set on CFPAC1 cells, the “Positive rosette cells (%)” value came to 41%. In data set [6], the “immunogenicity (MAHA response)” value was “only mildly immunogenic”.
